Experimental data published in patent publication US20160362487A1 (Regeneron, published 2016).

T1: biotinylated hIL-33 protein (R&D systems, Cat #3625-IL/CF) (human, UniProt O95760 112-270, biotinylated (sites not given))
T1 construct: Same commercial protein as m21, biotin-labelled; also called biotin-hIL-33
T1 sequence (looked up): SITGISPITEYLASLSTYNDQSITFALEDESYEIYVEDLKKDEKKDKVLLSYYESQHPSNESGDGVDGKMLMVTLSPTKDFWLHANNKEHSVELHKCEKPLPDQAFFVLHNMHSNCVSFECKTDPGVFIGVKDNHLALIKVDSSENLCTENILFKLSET

T2: human IL-33 (R&D Systems, #3625-IL-010/CF) (human, UniProt O95760 112-270)
T2 construct: Commercial recombinant protein; also called hIL-33; interleukin-33
T2 sequence (looked up): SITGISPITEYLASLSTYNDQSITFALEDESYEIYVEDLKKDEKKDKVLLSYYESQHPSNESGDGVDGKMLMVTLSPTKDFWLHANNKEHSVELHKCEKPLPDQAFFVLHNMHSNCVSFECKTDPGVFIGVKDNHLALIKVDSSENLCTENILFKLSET

T3: cynomolgus monkey IL-33 expressed with a C-terminal hexahistidine tag (cynomolgus monkey)
T3 construct: also called MfIL-33-6His; Mf-IL-33-6His
T3 chain: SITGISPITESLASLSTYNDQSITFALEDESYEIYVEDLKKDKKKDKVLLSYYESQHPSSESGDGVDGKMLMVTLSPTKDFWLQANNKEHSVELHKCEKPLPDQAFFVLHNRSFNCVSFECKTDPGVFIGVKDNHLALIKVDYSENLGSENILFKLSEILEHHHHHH


Assays:
[1] = target: T1, biotinylated hIL-33 protein (R&D …); experiment: competition ELISA, 30 pM biotin-hIL-33 on coated hST2-hFc
Description: The ability of anti-IL-33 antibodies to block either human IL-33 (hIL-33) or cynomologus monkey IL-33 binding to the human ST2 receptor was measured using a competition sandwich ELISA. […] The antibody/IL-33 mixtures were incubated for 1 hour at room temperature before they were transferred to the hST2-hFc-coated microtiter plates. After incubating for 1 hour at room temperature, the wells were then washed, and plate-bound biotin-hIL-33 was detected with streptavidin conjugated with horse-radish peroxidase (HRP) (Thermo Scientific, Cat # N200), and plate-bound MfIL-33-6His was detected with a HRP conjugated anti-His monoclonal antibody (Qiagen, #34460). All samples were developed with a TMB solution (BD biosciences, #51-2607KC) to produce a colorimetric reaction and then quenched by acidification with 1M sulfuric acid before measuring absorbance at 450 nm on a Victor X5 plate reader. Data analysis was performed using a sigmoidal dose-response model within Prism™ software. […] Percent blockade was calculated as the ratio of the reduction in signal observed in the presence of antibody relative to the difference between the signal with IL-33 alone and background (signal from HRP-conjugated secondary antibody or streptavidin alone). The absorbance measured for the constant concentration of biotin-hIL-33 or MfIL-33-6His alone is defined as 0% blocking and the absorbance measured for no added IL-33 is defined as 100% blocking.

[2] = target: T2, human IL-33 (R&D Systems, …); experiment: SPR 25C pH7.4, mAb captured
Description: (§1) Equilibrium dissociation constants (KD values) for IL-33 binding to purified anti-IL-33 monoclonal antibodies were determined using a real-time surface plasmon resonance biosensor using a Biacore 4000 instrument. The Biacore sensor surface was first derivatized by amine coupling with either a polyclonal rabbit anti-mouse antibody (GE, # BR-1008-38) or with a monoclonal mouse anti-human Fc antibody (GE, # BR-1008-39) to capture anti-IL-33 monoclonal antibodies expressed with mouse or with human IgG4 constant regions, respectively. All Biacore binding studies were performed in 0.01M ADA pH 7.4, 0.15M NaCl, 3 mM EDTA, and 0.05% v/v Surfactant Tween-20 (ABS-ET running buffer). […] Association of either hIL-33 or MfIL-33-6His to the captured monoclonal antibody was monitored for 4 minutes and their dissociation in ABS-ET running buffer was monitored for 10 minutes. The effect of reduced pH on the binding of each anti-IL-33 antibody to either hIL-33 or MfIL-33-6His was studied using an in-line pH chase assay format in 0.01M ADA pH 6.0, 0.15M NaCl, 3 mM EDTA, and 0.05% v/v Surfactant Tween-20 (ABS-ET pH6 buffer). To achieve this, association of either hIL-33 or MfIL-33-6His to the captured monoclonal antibody was monitored for 4 minutes in ABS-ET running buffer. Following a 30 second dissociation of either hIL-33 or MfIL-33-6His in ABS-ET running buffer, ABS-ET pH6 buffer was injected for 3 minutes, and the analyte dissociation under the low-pH conditions was measured. All the binding kinetic experiments were performed at both 25° C. and 37° C. Kinetic association (kₐ) and dissociation (kd) constants were determined by fitting the real-time sensorgrams to a 1:1 binding model using Scrubber 2.0c curve fitting software. Binding dissociation equilibrium constants (KD) and dissociative half-lives (t½) were calculated from the kinetic rate constants as: […]

[3] = target: T3, cynomolgus monkey IL-33 expressed with …; experiment: SPR 25C pH7.4, mAb captured
Description: as §1

[4] = target: T2, human IL-33 (R&D Systems, …); experiment: cell-based or functional assay
[5] = target: T2, human IL-33 (R&D Systems, …); experiment: BLI; hIL-33 pre-mixed with mAb-2 Isotype control 1
Description: Binding competition between a panel of different anti-IL-33 monoclonal antibodies was determined using a real time, label-free bio-layer interferometry assay on an Octet® HTX biosensor (ForteBio, A Division of Pall Life Sciences). The experiment was performed at 25° C. using a buffer of 0.01M HEPES pH7.4, 0.15M NaCl, 0.05% v/v Surfactant Tween-20, and 0.1 mg/ml BSA (HBS-ET kinetics buffer) with the plate shaking at a speed of 1000 rpm. To assess whether two antibodies were able to compete with one another for binding to human IL-33, a pre-mix assay format was used where 100 nM of human IL-33 (R&D Systems; #3625-IL-010/CF) was pre-mixed with 500 nM of different anti-IL-33 monoclonal antibodies (subsequently referred to as mAb-2) for at least 2 hours prior to running the binding competition assay. […] Following the capture step, unoccupied anti-mouse Fc polyclonal antibody and anti-human Fc polyclonal antibody on the Octet biosensors were saturated by submerging them for 4 minutes into wells containing 200 μg/mL of a non-specific monoclonal antibody with a mouse Fc or with a human Fc, respectively. Finally, the Octet biosensors were immersed for 4 minutes into wells containing the pre-mixed samples of 100 nM of human IL-33 and 500 nM of mAb-2. At the end of each cycle, the non-covalently captured anti-IL-33 antibodies along with the bound pre-complex of human IL-33 and mAb-2 were removed from the biosensors using three alternate 20 second immersions into 10 mM HCl followed by submerging into HBS-ET kinetics buffer. The biosensors were washed in HBS-ET kinetics buffer in between every step of the experiment. The real-time binding response was monitored during the binding events, and the binding response (in units of nm) at the end of every step was recorded.

Row | Binder | % Maximum blocking [1] | IC50 [1] | Kd [2] | koff [2] | kon [2] | t½ [2] | Kd [3] | koff [3] | kon [3] | t½ [3] | IC50, inhibition of 10 pM hIL-33 activation of HEK293/hST2/NFkB-luciferase cells [4] | mAb-1 Binding to the Pre-complex of mAb-2 & hIL-33 [5]
1 | H4H9659P (antibody, human IgG4, V domains shown, Human IgG4 Fc (H4H)) VH: QVQLVQSGAEVKKPGASVKVSCKASGYTFNSYGISWVRQAPGQGLEWMGWISSHNGNSHYVQKFQGRVSMTTDTSTSTAYMELRSLRSDDTAVYYCARHSYTTSWYGGFDYWGQGTLVTVSS VL: DIQMTQSPSSVSASVGDRVTITCRASQGFSSWLAWYQQKPGKAPQLLIYAASSLQSGVPSRFSGSGSGSDFTLTISSLQPEDFATYYCQQANSFPLTFGGGTKVEIK | 78% | 0.4 nM | 0.327 nM | 0.000172 s⁻¹ | 526000 M⁻¹ s⁻¹ | 67 min | 1.5 nM | 0.000486 s⁻¹ | 325000 M⁻¹ s⁻¹ | 24 min | 4.7e-11 M | 0.17 nm
2 | H4H9662P (antibody, V domains shown, Human IgG4 Fc (H4H)) VH: EVQLVESGGGLVQPGGSLRLSCAASGFTFSSYALTWVRQAPGKGLEWVSFISGSGGRPFYADSVKGRFTISRDNSKNMLYLQMNSLRAEDTAIYYCAKSLYTTSWYGGFDSWGQGTLVTVSS VL: DIQMTQSPSSVSASVGDRVTITCRASQGVVSWLAWYQQKPGKAPKLLIYAASSLQSGVPSRFSGSGSGTDFTLTISSLQPEDFATYYCQQSNSFPFTLGPGTKVDIK | 77% | 1 nM | 0.308 nM | 0.00025 s⁻¹ | 811000 M⁻¹ s⁻¹ | 46 min | 1.25 nM | 0.000442 s⁻¹ | 353000 M⁻¹ s⁻¹ | 26 min | 2e-11 M | 0.19 nm
3 | H4H9660P (antibody, human IgG4, V domains shown, Human IgG4 Fc (H4H)) VH: EVQLVESGGGLVQPGGSLRLSCAASGITLSSYGMSWVRQAPGKGLEWVASIFGSGGGPYYADSVKGRFTMSRDNSKNTLYLQMNSLRAEDTAVYYCAKDRYSGSYYGGFDYWGRGTLVTVSS VL: DIQMTQSPSSVSASVGDRVTITCRASQGITSWLAWYQQKPGKAPTLLIYAASSLQTGVPSRFSGSGSGTDFTLTISSLQPEHFATYYCQQANSFPPTFGGGTKVEIK | 57% | 0.31 nM | 0.322 nM | 0.000224 s⁻¹ | 696000 M⁻¹ s⁻¹ | 52 min | 3.49 nM | 0.00149 s⁻¹ | 426000 M⁻¹ s⁻¹ | 8 min | 3.5e-11 M | 0.21 nm
4 | H4H9663P (antibody, human IgG4, V domains shown, Human IgG4 Fc (H4H)) VH: QVQLVQSGAEVKKPGASVKVSCKASGYTFTGHYMYWMRQAPGQGLEWMGWINPNSGGTNYAQKFQDRVTMTRDTSISTAYMELSRLRSDDTAVYYCARGRYGSSWYGGFEYWGQGTLVTVSS VL: DIQMTQSPSSVSASVGDRVTITCRASQGITSWLAWYQQKPGKAPNLLIYAAASLQSGVPSRFSGSGSGTDFTLTISSLQPEDFTTYYCQQAYSLPLTFGGGTKVEIK | 74% | 0.5 nM | 0.305 nM | 0.000414 s⁻¹ | 1.36e+06 M⁻¹ s⁻¹ | 28 min | 1.06 nM | 0.000925 s⁻¹ | 869000 M⁻¹ s⁻¹ | 12 min | 1.3e-10 M | 0.17 nm

Now from value to binder:

Row | % Maximum blocking [1] | IC50 [1] | Kd [2] | koff [2] | kon [2] | t½ [2] | Kd [3] | koff [3] | kon [3] | t½ [3] | IC50, inhibition of 10 pM hIL-33 activation of HEK293/hST2/NFkB-luciferase cells [4] | mAb-1 Binding to the Pre-complex of mAb-2 & hIL-33 [5] | Binder
5 | 71% | 0.6 nM | 0.551 nM | 0.00028 s⁻¹ | 508000 M⁻¹ s⁻¹ | 41 min | 15.9 nM | 0.00354 s⁻¹ | 222000 M⁻¹ s⁻¹ | 3.3 min | 3.5e-11 M | 0.15 nm | H4H9666P (antibody, human IgG4, V domains shown, Human IgG4 Fc (H4H)) VH: QVQLVQSGAEVKKPGASVKVSCKASGYTFTSYGISWVRQAPGQGLEWMGWIRAYNGYTNYAQKFQGRVTMTTDTSTNTAYMELRTLNSDDTAVYYCARDRYSGSFHGNFDYWGQGTLVTVSS VL: DIQMTQSPSSVSASVGDRVTITCRASQGIFSWLAWYQQKPGKAPKVLIYAASNLESGVPSRFSGSGSGTDFTLTISSLQPEDFATYYCQQANSLPLTFGGGTKVEIK
6 | 73% | 0.3 nM | 0.757 nM | 0.000257 s⁻¹ | 339000 M⁻¹ s⁻¹ | 45 min | 11.8 nM | 0.00165 s⁻¹ | 140000 M⁻¹ s⁻¹ | 7 min | 5e-11 M | 0.16 nm | H4H9664P (antibody, human IgG4, V domains shown, Human IgG4 Fc (H4H)) VH: QVQLVESGGGVVQPGRSLRLSCAASGFTFSSYGLHWVRQSPGKGLEWVALISYDGSNKYYADSVKGRFTISRDNSKNTLYLQMNSLRPEDTAGYFCAKSLYTTSWYGGFDYWGQGTLVTVSS VL: DIQMTQSPSSVSASVGDRVTITCRASQGIRSWLAWYQQKPGKAPNLLIYAASSLQSGVPSRFSGSGSGTDFTLTISSLQPEDFATYYCQQANSFPPTFGPGTKVDIK
7 | 55% | 0.87 nM | 0.533 nM | 0.000474 s⁻¹ | 888000 M⁻¹ s⁻¹ | 24 min | 1.02 nM | 0.000566 s⁻¹ | 557000 M⁻¹ s⁻¹ | 20 min | 9e-11 M | 0.14 nm | H4H9665P (antibody, human IgG4, V domains shown, Human IgG4 Fc (H4H)) VH: EVQLVESGGGLVQPGGSLRLSCAASGFTFSNYAMTWVRQAPGKGLEWVSTISGSGDNTYYADSVQGRFTISRGHSKNTLYLQMNSLRAEDTAVYYCAKPTYSRSWYGAFDFWGQGTMVTVSS VL: DIQMTQSPSSVSASVGDRVTITCRASQGISSWLAWYQQKPGKAPQLLIYAASRLQSGVPSRFWGSGSGTDFTLTISSLQPEDFATYYCQQANNFPFTFGPGTKVDIK
